Source: publication PMC2063226, “High-affinity recombinant phage antibodies to the pan-carcinoma marker epithelial glycoprotein-2 for tumour targeting” (British Journal of Cancer, 1998)

B1: 323/A3 antibody (antibody, V domains shown)
VH: QIQLVQSGPELKKPGETVKISCKASGYTFTNYGMNWVRQASGEGLKWMGWINTYTGEPTYGEDFKGRFAFSLETSASTAYLQINNLKNEDTATYFCARFGNYVDYWGQGTTLTVSS
VL: DIVMTQAAFSNPVTLGTSASISCRSSKNLLHSNGITYLYWYLQKPGQSPHLLIYQMSNLASGVPDRFSSSGSGTDFTLRISRVEAEDVGVYYCAQNLEIPRTFGGGTKLEIK
notes: CDR3 identical); Murine whole bivalent antibody; source: gift from Dr SO Warnaar (Centocor, Leiden); copies: 2 + 2
B2: MOC-161 (antibody, V domains shown)
VH: QVQLQQSGTELIRPGTSVKISCKASGYAFTDYWLGWVKHRPGHGLEWIGDIYPGSDNTYYHEKFKGKATLTTDKSSSTAYMQLSSLTSEDSAVYFCARGLKGDYWGQGTTVTVSS
VL: DIQMTQSPSSLSAFSGGKVTITCKASQDIKKSIAWYQHKPGKGPRLLIHYTSTLQPGIPSRFSGSGSGEEYSFSISNLEPEDIATYYCQQYDNLRTFGGGTKLELK
B3: MOC-31 scFv (soluble) (scFv)
scFv: QVQLQQSGPELKKPGETVKISCKASGYTFTNYGMNWVKQAPGKGLKWMGWINTYTGESTYADDFKGRFAFSLETSASAAYLQINNLKNEDTATYFCARFAIKGDYWGQGTTVTVSSGGGGSGGGGSGGGGSDIVLTQSPFSNPVTLGTSASISCRSTKSLLHSNGITYLYWYLQKPGQSPQLLIYQMSNLASGVPDRFSSSGSGTDFTLRISRVEAEDVGVYYCAQNLEIPRTFGGGTKLEIKR
notes: 15-residue (Gly4Ser)3 linker, written out from the printed formula; The screening ELISA of the methods used clones in pCANTAB6 (His6 before c-myc); also called monovalent MOC-31 scFv; source: E. coli TG1, pUC119-polyHIS6myc, periplasm; purified (IMAC on Talon resin, gel filtration, monomer) for SPR; periplasmic preparation for immunohistochemistry; induced bacterial supernatant for ELISA; not …
B4: 17-1A antibody (antibody, V domains shown)
VH: QVQLQQSGAELVRPGTSVKVSCKASGYAFTNYLIEWVKQRPGQGLEWIGVINPGSGGTNYNEKFKGKATLTADKSSSTAYMQLSSLTSDDSAVYFCARDGPWFAYWGQGTLVTVSA
VL: NIVMTQSPKSMSMSVGERVTLTCKASENVVTYVSWYQQKPEQSPKLLIYGASNRYTGVPDRFTGSGSATDFTLTISSVQAEDLADYHCGQGYSYPYTFGGGTKLEIK
notes: Murine whole bivalent antibody; also called 17-lA; source: gift from Dr SO Warnaar (Centocor, Leiden); copies: 2 + 2
B5: chimeric 17-1A (antibody, V domains shown)
VH: B4 VH
VL: B4 VL
notes: as the VH of m2 (17-1A); as the VL of m2 (17-1A); Whole bivalent antibody; also called chimeric version of 17-1A; source: gift from Dr SO Warnaar (Centocor, Leiden); copies: 2 + 2

How the values were obtained:
[1] = target: recombinant epithelial glycoprotein-2 (EGP-2) (human) (UniProt P16422); assay: SPR; BIAcore; EGP-2 covalently coupled to a CM-5 sensorchip (350 RU, 'low-density' surface); antibody (at 200 nM) or antibody fragment flowed at 5 ul/min; koff fitted on t = 315-320 s (MOC-31 whole antibody: average of three fittings); kon from Ks against antibody concentration; room temperature; apparent values for the bivalent antibodies
[2] = target: T1, recombinant epithelial glycoprotein-2 (EGP-2) (human, UniProt P16422); assay: as above; settings: both partners purified
T1 construct: epithelial glycoprotein-2 (EGP-2, Ep-CAM), human; recombinant, expressed in the baculovirus system as described by Strassburg et al 1992 and Helfrich et al 1994; also called CO17-1A antigen; KSA; source: baculovirus system, purified; gift of Professor D Herlyn (the Wistar Institute)

[3] = target: T1, recombinant epithelial glycoprotein-2 …
Target sequence in this assay (P16422 24-265): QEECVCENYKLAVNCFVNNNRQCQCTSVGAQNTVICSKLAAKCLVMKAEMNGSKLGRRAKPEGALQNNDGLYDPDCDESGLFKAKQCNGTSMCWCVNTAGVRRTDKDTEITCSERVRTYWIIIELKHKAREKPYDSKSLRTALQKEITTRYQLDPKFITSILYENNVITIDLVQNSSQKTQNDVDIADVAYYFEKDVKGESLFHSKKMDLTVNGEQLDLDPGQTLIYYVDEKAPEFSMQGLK

[4] = target: the molecule itself; assay: SEC; gel filtration (Superdex column) of the IMAC-purified scFv preparations; monomeric and dimeric forms separated

| Molecule | koff [1] | t1/2 [1] | koff [2] | kon [2] | t1/2 [2] | further results |
| --- | --- | --- | --- | --- | --- | --- |
| MOC-31 whole antibody | 5e-05 s⁻¹ | 231 min | – | – | – | Ka [1]: 4.24e+08 M⁻¹; kon [1]: 106000 M⁻¹ s⁻¹ |
| B1 | – | – | 0.00106 s⁻¹ | 251000 M⁻¹ s⁻¹ | 10.9 min | – |
| B2 | – | – | – | – | – | binding result [3]: binds |
| B3 | 0.00034 s⁻¹ | 34 min | – | – | – | binding result [4]: binds |
| B4 | – | – | 0.0382 s⁻¹ | 595000 M⁻¹ s⁻¹ | 0.3 min | – |
| B5 | – | – | 0.0583 s⁻¹ | 1.09e+06 M⁻¹ s⁻¹ | 0.2 min | – |
